Results published in publication PMC3170320, “Minimal Antizyme Peptide Fully Functioning in the Binding and Inhibition of Ornithine Decarboxylase and Antizyme Inhibitor” (PLoS ONE, 2011).

Columns and labels:
ODC = conditions: cited from earlier work
From the text: (§1) There are at least four AZ isozymes with different binding affinities for ODC [31]–[32]. Isoform 1, AZ-1, is present in all tissues and is the major isoform that participates in ODC degradation. […] The C-terminal region of AZ-1 interacts with ODC to inhibit enzyme activity, and the N-terminal region of AZ-1 controls the degradation of ODC [34]–[36]. AZ-2 has a distribution similar to that of AZ-1 in all of the tissues and cells examined thus far, but its expr ...

ODC degradation = conditions: cited from earlier work
From the text: as §1

AZ peptide-inhibited ODC = assay: Rescue of AZ-inhibited ODC enzyme activity by AZI; assay type: biochemical, human; conditions: Figure 4
Method: Figure 4 Relative ODC enzyme activities in the presence of AZ and AZI. ODC enzymes equilibrated with equimolar AZI were inhibited by various concentrations of AZ peptides. The concentrations of AZI and ODC were fixed at 18.9 µg/mL and 20 µg/mL, respectively (the ratio of AZI monomer versus ODC monomer was fixed at 1). Panels A–H show the inhibition curves of ODC for each AZ peptide in the absence (closed circles) and in the presence (open circles) of AZI.
For enzyme rescue experiments with AZI, the ODC enzyme was first pre-incubated with AZ at a molar ratio of 3.5 AZ monomers to 1 ODC monomer to achieve 80% enzyme inhibition. The inhibited ODC activity was recovered by increasing the AZI concentration.

AZ = conditions: ref [20], [46]–[48]; cited from earlier work
From the text: Another protein that regulates ODC by binding to AZ is called antizyme inhibitor (AZI). AZI is homologous to ODC, but lacks ODC enzymatic activity, [43]–[46]. […] AZI can bind to all isoforms of mammalian AZ [32], [42].

human AZI = assay: AZ peptide-AZI complex size distribution by analytical ultracentrifugation; assay type: binding; conditions: Table 2
Method: A Beckman Optima XL-A analytical ultracentrifuge was used for sedimentation velocity experiments. Reference and sample sectors in the centerpiece were filled with buffer (400 µl) and sample protein (0.3 mg/mL, 380 µl), respectively, and then the cell was built up in an An-50 Ti rotor. Sedimentation velocity experiments were performed at 20°C with a rotor speed of 42,000 rpm. The data were traced by absorbance at 280 nm in continuous mode, with a time interval of 420 s and a step size of 0.002 cm. A total of 20–30 scans at different time points were collected and fitted to a continuous size distribution model using the program SEDFIT [54]–[55]. All size distributions were calculated at 0.1 to 20 S with a confidence level of p = 0.95 and a resolution N of 200.
In order to determine the dissociation constants (K d) of the AZ peptide-ODC and AZ peptide-AZI complexes, sedimentation velocity experiments were performed at different concentrations of AZ or AZ peptide with a constant concentration of human ODC or AZI. The K d values of the AZ peptide-ODC and AZ peptide-AZI complexes were calculated by a global fitting of all sedimentation data in the AB hetero-association model in the SEDPHAT program [56]–[57]. The partial specific volumes of the proteins, the solvent densities, and the viscosity were calculated by the SEDNTERP program. […]

B1: AZ-2: AZ isozyme 2, distribution similar to AZ-1, lower expression level (protein, UniProt O95190 1-189, looked up)
Ornithine decarboxylase …: MINTQDSSILPLSNCPQLQCCRHIVPGPLWCSDAPHPLSKIPGGRGGGRDPSLSALIYKDEKLTVTQDLPVNDGKPHIVHFQYEVTEVKVSSWDAVLSSQSLFVEIPDGLLADGSKEGLLALLEFAEEKMKVNYVFICFRKGREDRAPLLKTFSFLGFEIVRPGHPCVPSRPDVMFMVYPLDQNLSDED
Inhibition of ODC activity, AZ-2 (ODC; ref [38]–[39]): can inhibit ODC enzyme activity
ODC degradation, AZ-2 (ODC degradation; ref [38]–[39]): does not promote ODC degradation

B2: Antizyme inhibitor (protein)
chain: MKGFIDDANYSVGLLDEGTNLGNVIDNYVYEHTLTGKNAFFVGDLGKIVKKHSQWQNVVAQIKPFYTVKCNSAPAVLEILAALGTGFACSSKNEMALVQELGVPPENIIYISPCKQVSQIKYAAKVGVNILTCDNEIELKKIARNHPNAKVLLHIATEDNIGGEEGNMKFGTTLKNCRHLLECAKELDVQIIGVKFHVSSACKESQVYVHALSDARCVFDMAGEIGFTMNMLDIGGGFTGTEFQLEEVNHVISPLLDIYFPEGSGVKIISEPGSYYVSSAFTLAVNIIAKKVVENDKFPSGVEKTGSDEPAFMYYMNDGVYGSFASKLSEDLNTIPEVHKKYKEDEPLFTSSLWGPSCDELDQIVESCLLPELNVGDWLIFDNMGADSFHEPSAFNDFQRPAIYYMMSFSDWYEMQDAGITSDSMMKNFFFVPSCIQLSQEDSFSAEA
modifications: left off: His6, N-terminal, state not stated
Rescue of ODC enzyme activity by AZI (in words) (AZ peptide-inhibited ODC): can rescue AZ peptide-inhibited ODC enzyme activity
Affinity of AZI for AZ (AZ): binds to AZ with a higher affinity than ODC
Affinity of AZI for AZ peptides versus ODC (in words) (human AZI): can bind to AZ peptides with a higher affinity than ODC

B3: AZ-3: AZ isozyme 3, germ cells of testes (protein, UniProt Q9UMX2 1-235, looked up)
Ornithine decarboxylase …: MPCKRCRPSVYSLSYIKRGKTRNYLYPIWSPYAYYLYCYKYRITLREKMLPRCYKSITYKEEEDLTLQPRSCLQCSESLVGLQEGKSTEQGNHDQLKELYSAGNLTVLATDPLLHQDPVQLDFHFRLTSQTSAHWHGLLCDRRLFLDIPYQALDQGNRESLTATLEYVEEKTNVDSVFVNFQNDRNDRGALLRAFSYMGFEVVRPDHPALPPLDNVIFMVYPLERDVGHLPSEPP
Inhibition of ODC activity, AZ-3 (ODC; ref [41]): poorly inhibits ODC activity
ODC degradation, AZ-3 (ODC degradation; ref [41]): fails to stimulate ODC degradation
